# Source: patent publication US8304189, “Nucleic acid molecules containing recombination sites and methods of using the same” (Life Technologies Corporation)
# Target: Vaccinia DNA topoisomerase I (Vaccinia virus, UniProt P68698 P68698:1-314)
# Test: covalent charging of vector at CCCTT, 37 C 15 min, NEB buffer 1; charged vector cloned the test insert with 93.6-95.1% efficiency
# Settings: ligated to EcoRI-cut pCR8/GW ends
# Protocol: TOPO charging. To 5 μg of ligated DNA, 3 μg of TOPO-5 oligonucleotide (5'-CAACA CTATC GGAAT A-3' (SEQ ID NO: 66), phosphorylated on the 5' end), 10 μl 5× NEB #1 (New England Biolabs, Inc., Beverly, Mass. cat. no. M0202S), and 5 μg of Vaccinia Topoisomerase I was added and the volume adjusted to 50 μl with water. This reaction was incubated at 37° C. for 15 minutes before addition of 5 μl of 10× TOPO Stop Buffer (1 M Tris-HCl, pH 7.5, 500 mM EDTA). The TOPO adapted vector was then gel purified and quantified using the Hoechst dye assay.
# Testing of TOPO cloning efficiency. TOPO cloning efficiency was determined using a 500 bp PCR fragment containing a bacterial lac promoter driving the lacZ alpha fragment, this positive control fragment is found in some of Invitrogen's TOPO T/A cloning kits, for example, cat. no. K4300-01. Cloning of this fragment generated blue colonies on X-gal plates and colonies without the cloned fragment were white. The ratio of the total number of blue colonies to the total number of colonies was representative of the efficiency of the TOPO reaction. Twenty nanograms of the Taq polymerase generated 500 bp PCR product was used per TOPO reaction.
# T/A TOPO QC testing. The pCR8/GW/TOPO system was tested by TOPO cloning a Platinum taq-generated 500 bp test insert and selected ORFs into pCR8/GW/TOPO. TOPO cloning efficiency was measured using standard QC procedures. […]
binder,measurement,value
"TOPO adapter duplex (TOPO-1/TOPO-5/TOPO-4) (dsDNA, 5'-phosphate on TOPO-5) DNA 1: AATTCGCCCTTATTCCGATAGTG DNA 2: CAACACTATCGGAATA DNA 3: AGGGCG",binding result,binds
